Patent US20210072252A1

Tests used:
[1] = molecular target: T1, Leu; assay: single-molecule TIRF, Cy5-labelled protein on peptide immobilized on nanogel
T1 sequence (peptide): LGMMGSSC

[2] = molecular target: peptide with N-terminal phosphotyrosine; assay: biolayer interferometry (Blitz), peptide-coated sensor, NAAB in 1x PBS, 1:1 fit, kd/ka

Row | Binder | Counts [1] [counts] | Kd [2] [nM]
1 | engineered MetRS domain (Met NAAB), GST-MetRS fusion labeled with Cy5 (designed binder, not shown: a dimerising Fc or GST, Cy5 fluorophore on lysine side chains) AKKILVTCASPYANGSIHLGHMLEHIQADVWVRYQRMRGHEVNFICADDAHGTPIMLKAQQLGITPEQMIGEMSQEHQTDFAGFNISYDNYHSTHSEENRQLSELIYSRLKENGFIKNRTISQLYDPEKGMFLPDRFVKGTCPKCKSPDQYGDNCEVCGATYSPTELIEPKSVVSGATPVMRDSEHFFFDLPSFSEMLQAWTRSGALQEQVANKMQEWFESGLQQWDISRDAPYFGFEIPNAPGKYFYVWLDAPIGLMGSFKNLCDKRGDSVSFDEYWKKDSTAELYHFIGKGIVYFLSLFWPAMLEGSNFRKPSNLFVHGYVTVNGAKMSKSRGTFIKASTWLNHFDADSLRYYYTAKLSSRIDDIDLNLEDFVQRVNADIVNKVVNLASRNAGFINKRFDGVLASELADPQLYKTFTDAAEVIGEAWESREFGKAVREIMALADLANRYVDEQAPWVVAKQEGRDADLQAICSMGINLFRVLMTYLKPVLPKLTERAEAFLNTELTWDGIQQPLLGHKVNPFKALYNRIDMRQVEALVEASK | 49 | 
2 | Phosphotyrosine NAAB (designed binder) MDEFEMIKRNTSEIISELREVLKKDEKSALIGFEPSGKIHLGHYLQKKMIDLQNAGFDIIIPLADLHAYLNQKGELDEIRKIGDYNKKVFEAMLKAKYVYGSEFQLDKYTLNVYRLALKTTLKARRSMELIAREDENPVAEVIYPIMQVNGCHYKGVDVAVGGMEQRKIMLARELLPKKVVCIHPVLTGLDGEGKMSSSGNFIAVDDSPEEIRAFKKAYCPAGVVEGNPEIAKYFLEYPLTIKPEKFGGDLTVNSYEESLFKNKELHPMDLKAVAEELIKILEPIRK |  | 1070
